Source: patent US20080119384A1 (Janssen / Centocor, published 2008)
Non-standard residues stand in square brackets, D forms with d. No end group written: not given here. MPEG = methoxypoly(ethylene glycol), ~20,000 Da; 2Nal = N[C@@H](Cc1ccc2ccccc2c1)C(=O)O; Sar = CNCC(=O)O

Molecular target: T1, human TPO receptor, c-mpl (hTPOr) (human, UniProt P40238 26-635)
T1 sequence (looked up): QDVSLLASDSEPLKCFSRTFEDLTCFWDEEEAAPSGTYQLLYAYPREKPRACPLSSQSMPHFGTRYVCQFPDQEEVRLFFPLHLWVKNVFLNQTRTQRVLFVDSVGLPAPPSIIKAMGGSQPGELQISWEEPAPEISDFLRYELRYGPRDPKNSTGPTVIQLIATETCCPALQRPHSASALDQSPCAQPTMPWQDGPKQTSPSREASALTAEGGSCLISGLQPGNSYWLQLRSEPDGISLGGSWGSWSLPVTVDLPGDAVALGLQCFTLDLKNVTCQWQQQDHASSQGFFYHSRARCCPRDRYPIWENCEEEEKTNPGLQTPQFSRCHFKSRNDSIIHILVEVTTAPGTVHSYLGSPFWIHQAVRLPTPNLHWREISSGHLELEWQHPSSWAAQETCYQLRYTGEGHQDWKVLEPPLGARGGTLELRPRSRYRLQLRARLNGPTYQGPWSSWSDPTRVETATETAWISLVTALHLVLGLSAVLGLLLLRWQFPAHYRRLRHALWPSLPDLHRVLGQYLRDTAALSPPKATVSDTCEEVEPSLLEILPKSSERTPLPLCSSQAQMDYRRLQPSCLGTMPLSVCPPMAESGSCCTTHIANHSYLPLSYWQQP
Assay: cell-based or functional assay

B1: PEGylated TPO Compound No. 1 (peptide)
peptide: {MPEG}-IEGPTLRQ[2Nal]LAAR[Sar]K[Sar]RAAL[2Nal]QRLTPGEI
modifications: not fully specified (C-terminus); printed as (MPEG-Ile-Glu-Gly-Pro-Thr-Leu-Arg-Gln-(2-Nal)-Leu-Ala-Ala-Arg-(Sar))2-Lys-NH2; also: branched dimer: two 14-mers joined at their C-termini to Lys alpha and epsilon amines, residues 16-29 written C→N, Ile29 is the second N-terminus bearing MPEG, Lys C-terminal amide (lysinamide)
EC50, luciferase reporter (fos promoter) in Baf/3 cells expressing human TPO-R: ~5 pM
